Residue numbers refer to the chain shown, from its start. Names and notes keep the numbering of the source. “Also recorded” adds a separate entry of the source.
B1: K67R/Y110D: CSR CD2z mutant within the extracellular domain of CD2 (protein)
chain: KEITNALETWGALGQDINLDIPSFQMSDDIDDIKWEKTSDKKRIAQFRKEKETFKEKDTYKLFKNGTLKIKHLKTDDQDIYKVSIDDTKGKNVLEKIFDLKIQERVSKPKISWTCINTTLTCEVMNGTDPELNLYQDGKHLKLSQRVITHKWTTSLSAKFKCTAGNKVSKESSVEPVSCPEKGLDIYLIIGICGGGSLLMVFVALLVFYITKRKKQRSRRNDEELETRAHRVATEERGRKPHQIPASTPQNPATSQHPPPPPGHRSQAPSHRPPPPGHRVQHQPQKRPPAPSGTQVHQQKGPPLPRPRVQPKPPHGAAENSLSPSSNRVKFSRSADAPAYKQGQNQLYNELNLGRREEYDVLDKRRGRDPEMGGKPRRKNPQEGLYNELQKDKMAEAYSEIGMKGERRRGKGHDGLYQGLSTATKDTYDALHMQALPPR
B2: K67R/Q70K/Y110D/D111H: CSR CD2z mutant within the extracellular domain of CD2 (protein)
chain: B1 chain with Q46K, D87H
B3: D111H: mutant CSR CD2z with D111H mutation within the CD2 extracellular domain (SEQ ID NO: 17118) (protein)
chain: MSFPCKFVASFLLIFNVSSKGAVSKEITNALETWGALGQDINLDIPSFQMSDDIDDIKWEKTSDKKKIAQFRKEKETFKEKDTYKLFKNGTLKIKHLKTDDQDIYKVSIYHTKGKNVLEKIFDLKIQERVSKPKISWTCINTTLTCEVMNGTDPELNLYQDGKHLKLSQRVITHKWTTSLSAKFKCTAGNKVSKESSVEPVSCPEKGLDIYLIIGICGGGSLLMVFVALLVFYITKRKKQRSRRNDEELETRAHRVATEERGRKPHQIPASTPQNPATSQHPPPPPGHRSQAPSHRPPPPGHRVQHQPQKRPPAPSGTQVHQQKGPPLPRPRVQPKPPHGAAENSLSPSSNRVKFSRSADAPAYKQGQNQLYNELNLGRREEYDVLDKRRGRDPEMGGKPRRKNPQEGLYNELQKDKMAEAYSEIGMKGERRRGKGHDGLYQGLSTATKDTYDALHMQALPPR
B4: Delta K106-120: CSR CD2z mutant of the panel (protein)
chain: KEITNALETWGALGQDINLDIPSFQMSDDIDDIKWEKTSDKKKIAQFRKEKETFKEKDTYKLFKNGTLKIKHLKTDDQDIYIFDLKIQERVSKPKISWTCINTTLTCEVMNGTDPELNLYQDGKHLKLSQRVITHKWTTSLSAKFKCTAGNKVSKESSVEPVSCPEKGLDIYLIIGICGGGSLLMVFVALLVFYITKRKKQRSRRNDEELETRAHRVATEERGRKPHQIPASTPQNPATSQHPPPPPGHRSQAPSHRPPPPGHRVQHQPQKRPPAPSGTQVHQQKGPPLPRPRVQPKPPHGAAENSLSPSSNRVKFSRSADAPAYKQGQNQLYNELNLGRREEYDVLDKRRGRDPEMGGKPRRKNPQEGLYNELQKDKMAEAYSEIGMKGERRRGKGHDGLYQGLSTATKDTYDALHMQALPPR

Columns and labels:
[1] = test system: anti-CD2 activator reagent, anti-CD2 monoclonal antibody (clone TS1/8), anti-CD2 polyclonal antibody reagent; assay: CSR CD2z mutant surface expression and staining with anti-CD2 antibody reagents in K562 cells; assay type: binding; conditions: 9 μg mRNA, next day
Method: FIG. 23A is a bar graph showing CSR CD2z mutant staining data. A panel of CSR CD2z mutants was designed, constructed, and tested for surface expression and binding to several anti-CD2 antibody reagents. To do so, each mutant was synthesized, subcloned into an in-house mRNA production vector, and then high-quality mRNA was produced for each. K562 cells were electroporated with 9 μg of mRNA, and surface-expression of each molecule was analyzed by flow cytometry the next day and data are shown as bar graphs. Each molecule was stained with anti-CD2 activator reagent, anti-CD2 monoclonal antibody (clone TS1/8), or anti-CD2 polyclonal antibody reagent (goat anti-human CD2).
(§1) FIG. 23C is a summary of staining and degranulation data. Data from surface-expression and binding studies, as well as those from degranulation experiments for each CSR CD2z mutant is summarized in the table.

human CD58 = biological target: T1, human CD58 (Homo sapiens, UniProt P19256); assay: T cell degranulation (CD107a) against CD58-positive cell targets; assay type: cell-based; conditions: 4-6 hours coculture, K562 or Rat2 cells with mRNA encoding human CD58
T1 construct: expressed in transfected cells; host or cells: K562 (electroporated) or Rat2 (lipofected) cells
T1 sequence (P19256 29-250): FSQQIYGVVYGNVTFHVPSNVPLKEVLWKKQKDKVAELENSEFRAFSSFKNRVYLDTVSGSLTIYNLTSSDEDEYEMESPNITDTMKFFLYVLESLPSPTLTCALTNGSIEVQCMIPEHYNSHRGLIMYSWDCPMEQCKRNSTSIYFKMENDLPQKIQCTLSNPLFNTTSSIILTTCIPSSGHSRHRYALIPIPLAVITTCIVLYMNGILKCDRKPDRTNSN
Method: FIG. 23B is a series of bar graphs showing CSR CD2z mutant degranulation data. The panel of CSR CD2z mutants was tested for the capability of mediating degranulation against CD58-positive cell targets. T cell degranulation is a surrogate of T cell killing that can be measured by FACS staining for intracellular CD107a expression following coculture with target cell lines expressing target antigen. Specifically, pan T cells from normal blood donors were stimulated with anti-CD3/anti-CD28 beads in standard T cell culture media, then rested. These cells were then electroporated (BTX ECM 830 electroporator @ 500V for 700 μs) with 9 μg of mRNA expressing CSR CD2z mutants and cultured overnight. The next day, the cells were cocultured for 4-6 hours in the presence of various target cell lines. Positive target cell lines included K562 cells or Rat2 cells that were electroporated or lipofected, respectively, with mRNA encoding human CD58, while negative controls were either Rat2 cells that were not electroporated or CSR CD2z mutant expressing T cells alone.
as §1
FIG. 23D is a series of flow cytometry plots showing the expression of CD48, CD58 or CD59 on K562 and Rat2 cells. To confirm possible ligands for the CSR WT CD2z molecule, a panel of known and suspected ligands including human CD48, CD58, and CD59 were tested. Degranulation of engineered T cells was evaluated against the cell lines K562 and Rat2 that were made to overexpress the target ligands and confirmed for expression by FACS staining. Red histograms are unstained cells and blue histograms are cells that were electroporated/lipofected with mRNA and then stained for expression of the respective marker by FACS.
FIG. 23E is a bar graph showing that CSR CD2z recognizes human CD58, but not CD48 or CD59. To confirm possible ligands for the CSR WT CD2z molecule, a panel of known and suspected ligands including human CD48, CD58, and CD59 were tested. Degranulation of engineered T cells was evaluated against the cell lines K562 and Rat2 that were made to overexpress the target ligands and confirmed for expression by FACS staining. Cells were electroporated/lipofected with mRNA and then stained for expression of the respective marker by FACS. As a control, a BCMA CAR was included as well as a K562 cell line overexpressing BCMA. In addition, T cells transfected with GFP were also included as a control. T cell degranulation is a surrogate of T cell killing that can be measured by FACS staining for intracellular CD107a expression following coculture with target cell lines expressing target antigen. Pan T cells from normal blood donors were stimulated with anti-CD3/anti-CD28 beads in standard T cell culture media, then rested. These T cells were then electroporated with mRNA expressing CSR WT CD2z, BCMA CAR, or GFP and cultured overnight. The next day, the cells were cocultured for 4-6 hours in the presence of the various target cell lines that were electroporate/lipofected with mRNA encoding human CD48, CD58 or CD59, while negative controls were either K562 or Rat2 cells that were not electroporated/lipofected, or each of the electroporated T cells alone.

TCRb and b2M = assay: Gene editing (knockout of TCR and MHCI) of Allo CAR-T cells with CSR; assay type: cell-based, human; conditions: up to 14-day culture; CSR stable or transient
Excerpt: Pan T cells isolated from healthy donor blood were genetically modified using the piggyBac® DNA modification system in combination with the Cas-CLOVER™ gene-editing system (CC) to produce allogeneic (Allo) CAR-T cells. […] Following EP, all cells were subsequently stimulated with a cocktail of agonist mAbs anti-CD2, anti-CD3 and anti-CD28, and were later selected for genetic modification over the course of up to a 14-day culture period using the selection gene. At the end of the initial culture period, all T cells expressed the CAR, indicating successful selection for genetically-modified cells (data not shown). All samples were performed in duplicate, and data is shown in bar graph where error bars represent standard deviation.

Allo CAR-T cells = assay: Expansion of Allo CAR-T cells with WT or mutant (D111H) CSR CD2z; assay type: cell-based, human; conditions: up to 15-day culture; CSR stable or transient
Excerpt: FIG. 24A is a bar graph showing that the delivery of CSR CD2z-D111H mutant enhances the expansion of Allo CAR-T cells. Pan T cells isolated from healthy donor blood were genetically modified using the piggyBac® DNA modification system in combination with the Cas-CLOVER™ gene-editing system (CC) for the production of allogeneic (Allo) CAR-T cells, or without CC gene-editing, as a control, for the production of autologous (Auto) CAR-T without a CSR (No CSR); auto CAR-T cells were produced by nucleofection of an mRNA encoding the super piggyBac™ transposase enzyme (SPB) and a transposon encoding a CAR, selection gene and a safety switch. […] Following EP, all cells were subsequently stimulated with a cocktail of agonist mAbs anti-CD2, anti-CD3 and anti-CD28, and were later selected for genetic modification over the course of up to a 15-day culture period using the selection gene. At the end of the initial culture period, all T cells expressed the CAR, indicating successful selection for genetically-modified cells (data not shown), and then all non-edited TCR-positive cells were depleted via negative selection to yield a population of Allo CAR-T cells that were >99% TCR-negative (data not shown).

Molecule | surface expression and binding of anti-CD2 staining reagents [1] | degranulation (CD107a) against CD58 (human CD58) | degranulation (CD107a) against CD58 (human CD58; listed as K67R/Y1101D) | degree of gene editing compared to Allo CAR-T cells produced without a CSR (TCRb and b2M) | peak expansion of Allo CAR-T cells compared to Allo CAR-T cells produced without a CSR (Allo CAR-T cells)
B1 | expressed on the surface and/or retain binding to the anti-CD2 activator reagent | Little reactivity | do not mediate anti-CD58 degranulation activity | – | –
B2 | – | Little reactivity | – | – | –
B3 | strongly bound by all staining reagents | Little reactivity; also recorded: completely abrogating anti-CD58 degranulation activity | – | a similar or greater degree of gene editing | a greater degree of expansion
B4 | – | Little reactivity | – | – | –

From patent US20220389077A1, “ALLOGENEIC CELL COMPOSITIONS AND METHODS OF USE” (Poseida Therapeutics, Inc., priority 2018, published 2022)
